Test results: patent publication US20220064218A1 (Bicycle, published 2022)
Blank lines part the entries; values can stand above or below the binder they belong to. *1 amine or outer side, *2 acyl side, *3 side chain or, on linkers, in order; H or OH if unused. Bridges are numbered along the chain shown (N, C = ends). Where no end group is shown, it is not given here. TATA = O=C(CC[*:1])N1CN(C(=O)CC[*:2])CN(C(=O)CC[*:3])C1

Biological target: T1, human CD38 (human, UniProt P28907 43-300, limits assumed)
T1 construct: also called hCD38
T1 sequence (looked up): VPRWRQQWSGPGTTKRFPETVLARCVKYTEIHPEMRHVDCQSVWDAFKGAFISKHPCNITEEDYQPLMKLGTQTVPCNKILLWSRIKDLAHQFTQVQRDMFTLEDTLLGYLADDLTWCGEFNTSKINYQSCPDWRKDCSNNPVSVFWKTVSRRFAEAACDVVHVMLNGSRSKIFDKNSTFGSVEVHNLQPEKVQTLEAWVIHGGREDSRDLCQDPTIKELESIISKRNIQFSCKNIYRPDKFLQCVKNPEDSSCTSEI
Test: fluorescence polarisation competition with the labelled tracer peptide

Ki: 90 nM
B1: 66-50-16-T01-N001 (peptide)
peptide: ACYWNPFTACWSCEND
modifications: linker 2-10-13 via TATA (inferred)
notes: Synthetic bicyclic peptide cyclised with TATA

Ki: 316 nM
B2: 66-50-19-T02-N001 (peptide)
peptide: ACYWNPFTACYSCTEN
modifications: linker 2-10-13 via TATA (inferred)
notes: Synthetic bicyclic peptide cyclised with TATA; also called 66-50-19-T002-N001
